The target in data set [1] is T1, HLTF (Homo sapiens, UniProt Q14527 25-1009).
T1 sequence: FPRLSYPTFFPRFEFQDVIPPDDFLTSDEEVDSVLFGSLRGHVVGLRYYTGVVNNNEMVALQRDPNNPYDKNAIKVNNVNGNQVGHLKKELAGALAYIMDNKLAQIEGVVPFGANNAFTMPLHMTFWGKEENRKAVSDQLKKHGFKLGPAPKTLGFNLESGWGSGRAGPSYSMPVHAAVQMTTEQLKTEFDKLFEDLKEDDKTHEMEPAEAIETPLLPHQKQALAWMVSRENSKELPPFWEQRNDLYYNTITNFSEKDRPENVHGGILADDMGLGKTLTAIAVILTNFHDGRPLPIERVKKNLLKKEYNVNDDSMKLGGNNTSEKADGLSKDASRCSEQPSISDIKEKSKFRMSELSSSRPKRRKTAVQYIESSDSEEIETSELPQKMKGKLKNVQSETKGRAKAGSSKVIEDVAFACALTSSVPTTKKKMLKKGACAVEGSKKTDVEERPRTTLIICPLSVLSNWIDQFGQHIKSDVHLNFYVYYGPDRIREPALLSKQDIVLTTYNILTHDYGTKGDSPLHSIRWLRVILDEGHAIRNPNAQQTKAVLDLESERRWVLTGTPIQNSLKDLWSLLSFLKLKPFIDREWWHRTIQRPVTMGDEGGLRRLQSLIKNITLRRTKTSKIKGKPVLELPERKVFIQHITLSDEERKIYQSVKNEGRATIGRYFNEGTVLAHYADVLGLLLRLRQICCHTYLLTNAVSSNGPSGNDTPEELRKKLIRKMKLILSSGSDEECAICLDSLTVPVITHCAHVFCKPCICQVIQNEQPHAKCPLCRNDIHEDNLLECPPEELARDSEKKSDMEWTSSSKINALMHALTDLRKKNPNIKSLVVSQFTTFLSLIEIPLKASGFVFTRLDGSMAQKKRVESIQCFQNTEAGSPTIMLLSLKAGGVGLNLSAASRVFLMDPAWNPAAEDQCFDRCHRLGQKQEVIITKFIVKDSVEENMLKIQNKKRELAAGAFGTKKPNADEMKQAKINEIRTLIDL
Nature of the data set: pull-down; lower salt; FP: 20 mM Tris pH 7.5, 50 mM (dsDNA, KlHIRAN) or 70 mM (ssDNA) NaCl, 2 mM MgCl2, 1 nM DNA, room temp; EMSA: 20 mM Tris pH 7.5, 100 mM KCl, 0.5 mM DTT, 3% glycerol, 2 mM MgCl2, 250 ug/mL BSA, 4 C; pull-down: 20 mM Tris pH 7.5, 50 mM NaCl, 4 C. The conditions noted are these: protein: recombinant; tags: His (pET28a); label: 3'-biotin. In general terms: In EMSA bound probe runs differently from free probe, usually more slowly.

Data set [2] has as its target T2, ScRad5 (Saccharomyces cerevisiae, UniProt P32849 1-1169).
T2 sequence: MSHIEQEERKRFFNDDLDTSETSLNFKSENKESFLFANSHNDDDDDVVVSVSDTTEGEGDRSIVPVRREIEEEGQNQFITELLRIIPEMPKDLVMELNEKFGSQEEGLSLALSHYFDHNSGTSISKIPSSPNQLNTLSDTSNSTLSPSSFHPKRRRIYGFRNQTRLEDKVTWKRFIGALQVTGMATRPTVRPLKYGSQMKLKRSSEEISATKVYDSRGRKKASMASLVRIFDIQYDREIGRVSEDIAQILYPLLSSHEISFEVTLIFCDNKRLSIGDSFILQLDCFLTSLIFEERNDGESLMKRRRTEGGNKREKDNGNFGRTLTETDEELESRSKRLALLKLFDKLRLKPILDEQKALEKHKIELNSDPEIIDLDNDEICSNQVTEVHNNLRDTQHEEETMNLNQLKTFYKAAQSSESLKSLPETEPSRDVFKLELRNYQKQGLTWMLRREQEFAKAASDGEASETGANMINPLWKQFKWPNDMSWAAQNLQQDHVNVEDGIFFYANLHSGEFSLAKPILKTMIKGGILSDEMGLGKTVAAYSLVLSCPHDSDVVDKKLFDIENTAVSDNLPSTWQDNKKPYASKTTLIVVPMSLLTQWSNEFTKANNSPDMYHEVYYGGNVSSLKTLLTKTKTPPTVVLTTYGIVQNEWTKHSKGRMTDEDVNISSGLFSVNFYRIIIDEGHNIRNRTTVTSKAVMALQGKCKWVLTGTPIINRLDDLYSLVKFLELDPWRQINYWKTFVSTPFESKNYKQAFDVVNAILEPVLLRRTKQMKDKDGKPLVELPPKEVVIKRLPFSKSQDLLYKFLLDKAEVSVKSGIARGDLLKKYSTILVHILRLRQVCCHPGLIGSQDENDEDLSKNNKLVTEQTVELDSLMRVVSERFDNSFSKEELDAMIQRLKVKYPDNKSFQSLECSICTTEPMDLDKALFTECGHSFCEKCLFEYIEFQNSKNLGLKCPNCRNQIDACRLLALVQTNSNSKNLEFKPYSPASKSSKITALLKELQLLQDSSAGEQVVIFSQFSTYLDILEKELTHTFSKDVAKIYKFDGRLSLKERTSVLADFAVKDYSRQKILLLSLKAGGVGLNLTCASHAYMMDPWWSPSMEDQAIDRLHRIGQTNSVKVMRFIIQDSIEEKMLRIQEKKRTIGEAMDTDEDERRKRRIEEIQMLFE
Nature of the data set: pull-down; similar to 5'-biotin; FP: 20 mM Tris pH 7.5, 50 mM (dsDNA, KlHIRAN) or 70 mM (ssDNA) NaCl, 2 mM MgCl2, 1 nM DNA, room temp; EMSA: 20 mM Tris pH 7.5, 100 mM KCl, 0.5 mM DTT, 3% glycerol, 2 mM MgCl2, 250 ug/mL BSA, 4 C; pull-down: 20 mM Tris pH 7.5, 50 mM NaCl, 4 C. The following applies: protein: recombinant; tags: N-terminal FLAG; label: 3'-biotin.

In data set [3] the target is T3, KlRad5 (Kluyveromyces lactis, UniProt Q6CJM4 163-1114).
T3 sequence: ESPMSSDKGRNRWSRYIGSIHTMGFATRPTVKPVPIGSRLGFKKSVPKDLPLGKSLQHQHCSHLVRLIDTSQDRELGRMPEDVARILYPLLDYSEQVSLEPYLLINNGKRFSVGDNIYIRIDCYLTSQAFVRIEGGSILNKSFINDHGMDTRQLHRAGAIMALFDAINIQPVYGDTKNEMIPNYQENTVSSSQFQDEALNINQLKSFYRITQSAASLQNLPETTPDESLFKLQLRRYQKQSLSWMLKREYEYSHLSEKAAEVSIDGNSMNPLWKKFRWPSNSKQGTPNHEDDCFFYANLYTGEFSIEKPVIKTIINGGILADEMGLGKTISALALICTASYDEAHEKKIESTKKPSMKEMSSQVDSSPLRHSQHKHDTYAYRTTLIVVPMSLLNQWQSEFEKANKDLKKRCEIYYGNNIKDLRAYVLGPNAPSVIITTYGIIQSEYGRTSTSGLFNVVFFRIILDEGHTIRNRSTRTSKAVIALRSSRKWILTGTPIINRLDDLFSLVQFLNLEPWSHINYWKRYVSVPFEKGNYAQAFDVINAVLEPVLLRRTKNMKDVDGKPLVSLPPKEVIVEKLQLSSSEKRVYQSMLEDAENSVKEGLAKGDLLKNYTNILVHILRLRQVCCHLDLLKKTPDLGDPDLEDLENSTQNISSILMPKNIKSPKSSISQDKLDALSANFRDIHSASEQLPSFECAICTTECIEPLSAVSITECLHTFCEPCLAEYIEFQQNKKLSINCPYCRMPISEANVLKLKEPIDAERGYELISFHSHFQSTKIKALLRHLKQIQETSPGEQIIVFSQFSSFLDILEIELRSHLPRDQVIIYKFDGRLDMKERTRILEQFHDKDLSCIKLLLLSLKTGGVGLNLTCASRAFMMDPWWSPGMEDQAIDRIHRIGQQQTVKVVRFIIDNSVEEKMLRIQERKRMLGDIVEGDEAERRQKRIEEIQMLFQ
Briefly: pull-down; similar to 5'-biotin at all salt concentrations; FP: 20 mM Tris pH 7.5, 50 mM (dsDNA, KlHIRAN) or 70 mM (ssDNA) NaCl, 2 mM MgCl2, 1 nM DNA, room temp; EMSA: 20 mM Tris pH 7.5, 100 mM KCl, 0.5 mM DTT, 3% glycerol, 2 mM MgCl2, 250 ug/mL BSA, 4 C; pull-down: 20 mM Tris pH 7.5, 50 mM NaCl, 4 C. The following applies: protein: recombinant; tags: none; label: 3'-biotin.

Data set [4] deals with T2, ScRad5. Nature of the data set: pull-down; FP: 20 mM Tris pH 7.5, 50 mM (dsDNA, KlHIRAN) or 70 mM (ssDNA) NaCl, 2 mM MgCl2, 1 nM DNA, room temp; EMSA: 20 mM Tris pH 7.5, 100 mM KCl, 0.5 mM DTT, 3% glycerol, 2 mM MgCl2, 250 ug/mL BSA, 4 C; pull-down: 20 mM Tris pH 7.5, 50 mM NaCl, 4 C. The following applies: protein: recombinant; tags: N-terminal FLAG; label: 5'-biotin.
Data set [5] addresses T1, HLTF. Briefly: pull-down; 100 mM salt; FP: 20 mM Tris pH 7.5, 50 mM (dsDNA, KlHIRAN) or 70 mM (ssDNA) NaCl, 2 mM MgCl2, 1 nM DNA, room temp; EMSA: 20 mM Tris pH 7.5, 100 mM KCl, 0.5 mM DTT, 3% glycerol, 2 mM MgCl2, 250 ug/mL BSA, 4 C; pull-down: 20 mM Tris pH 7.5, 50 mM NaCl, 4 C. The following applies: protein: recombinant; tags: His (pET28a); label: 5'-biotin.
Data set [6] deals with T3, KlRad5. Briefly: pull-down; suppressed by SSB; all salt concentrations tested; FP: 20 mM Tris pH 7.5, 50 mM (dsDNA, KlHIRAN) or 70 mM (ssDNA) NaCl, 2 mM MgCl2, 1 nM DNA, room temp; EMSA: 20 mM Tris pH 7.5, 100 mM KCl, 0.5 mM DTT, 3% glycerol, 2 mM MgCl2, 250 ug/mL BSA, 4 C; pull-down: 20 mM Tris pH 7.5, 50 mM NaCl, 4 C. The conditions noted are these: protein: recombinant; tags: none; label: 5'-biotin.

A further data set deals with T4, ScHIRAN (Saccharomyces cerevisiae, UniProt P32849 171-375).
T4 sequence: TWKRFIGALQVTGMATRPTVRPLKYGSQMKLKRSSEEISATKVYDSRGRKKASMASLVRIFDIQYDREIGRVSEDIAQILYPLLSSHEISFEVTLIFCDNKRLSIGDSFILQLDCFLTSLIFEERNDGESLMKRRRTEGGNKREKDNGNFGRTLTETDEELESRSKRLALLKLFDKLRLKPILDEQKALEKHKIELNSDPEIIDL
Briefly: EMSA; no preference for free 3'-OH; FP: 20 mM Tris pH 7.5, 50 mM (dsDNA, KlHIRAN) or 70 mM (ssDNA) NaCl, 2 mM MgCl2, 1 nM DNA, room temp; EMSA: 20 mM Tris pH 7.5, 100 mM KCl, 0.5 mM DTT, 3% glycerol, 2 mM MgCl2, 250 ug/mL BSA, 4 C; pull-down: 20 mM Tris pH 7.5, 50 mM NaCl, 4 C. The following applies: protein: recombinant; tags: intein-CBD cleaved off; label: 3'-FAM.

Another data set addresses T5, KlHIRAN (Kluyveromyces lactis, UniProt Q6CJM4 174-341).
T5 sequence: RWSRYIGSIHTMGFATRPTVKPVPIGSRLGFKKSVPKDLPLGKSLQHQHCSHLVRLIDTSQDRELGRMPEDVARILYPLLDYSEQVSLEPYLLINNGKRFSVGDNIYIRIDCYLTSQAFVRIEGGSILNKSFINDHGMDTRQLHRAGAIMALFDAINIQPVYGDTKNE
The data set is described as above. The conditions noted are these: protein: recombinant; tags: intein-CBD cleaved off; label: 3'-FAM.

B1: dT25, 3'-biotin (ssDNA)
DNA: TTTTTTTTTTTTTTTTTTTTTTTTT
With B1, the binding result with HLTF [1], with ScRad5 [2] and with KlRad5 [3] was “binds” in each case.

B2: dT25, 5'-biotin (ssDNA)
DNA: TTTTTTTTTTTTTTTTTTTTTTTTT
For B2, the binding result in the data set with ScRad5 [4], in the data set with HLTF [5] and with KlRad5 [6] was “binds” throughout.

B3: dT10, 3'-FAM (ssDNA)
DNA: TTTTTTTTTT
For B3, the binding result with ScHIRAN and in the data set with KlHIRAN was “binds” each time.

(Values after paper PMC7804152, “Structural basis for the multi-activity factor Rad5 in replication stress tolerance”.)
